# According to the RNAGym collection of RNA variant scans (doi:10.1093/molbev/msab373):
# B1: Azoarcus group I ribozyme (parent)
# chain: GUGCCUUGCGCCGGGAAACCACGCAAGGGAUGGUGUCAAAUUCGGCGAAACCUAAGCGCCCGCCCGGGCGUAUGGCAACGCCGAGCCAAGCUUCGGCGCCUGCGCCGAUGAAGGUGUAGAGACUAGACGGCACCCACCUAAGGCAAACGCUAUGGUGAAGGCAUAGUCCAGGGAGUGGCGAAAGUCACACAAACCGG
# Variants of: B1
# Experiment: reverse-splicing fitness (ratio to wild type); higher = more active; in vitro selection; Mg2+ level not given
# In short: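 An in vitro group I ribozyme library with randomized positions was T7-transcribed and gel-purified. In triplicate, 10 pmol RNA in EPPS pH 7.5 was reacted with 50 pmoles of a 30-nt RNA substrate for 1 h at 37 °C across several added MgCl2 levels (1–48 mM), then stopped with EDTA. Products were reverse transcribed from a substrate-complementary primer, PCR-amplified and sequenced (HiSeq 4000). Fitness is a variant's read proportion after selection over that before, normalised to wild type.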
row,Variant,reverse-splicing fitness
1,C82G A111C A120C A145U C150G C169U U176G,0.0068
2,C82G A111C A120C A145U C150G C169U U176C,0.0121
3,C82G A111C A120C A145U C150G C169U U176A,0.00736
4,C82G A111C A120C A145G C150U C169A U176C,0.0142
5,C82G A111C A120C A145G C150U C169A U176A,0.0153
6,C82G A111C A120C A145G C150U C169A U176G,0.00796
7,C82A A145U C150A C169G U176C,0.0131
8,C82A A145U C150A C169G U176G,0.0059
9,C82A A145U C150A C169G U176A,0.0139
10,C82G A111C A120C A145C C150U C169A U176C,0.00824
11,C82G A111C A120C A145C C150U C169A U176A,0.0125
12,C82G A111C A120C A145C C150U C169A U176G,0.00692
13,C82A A145U C150A U176C,0.0555
14,C82A A145U C150A U176G,0.0181
15,C82A A145U C150A U176A,0.0485
16,C82A U176C,0.484
17,C82A U176G,0.12
18,C82A U176A,0.407
19,C82A A145U C150U U176G,0.0823
20,C82A A145U C150U U176C,0.324
21,C82A A145U C150U U176A,0.273

row,Variant,reverse-splicing fitness
1,C82A C150G C169A,0.00934
2,C82A C150G C169G,0.00738
3,C82A C150G C169U,0.00995
4,C82A A145G C150U C169A U176A,0.0161
5,C82A A145G C150U C169A U176G,0.00665
6,C82A A145G C150U C169A U176C,0.0166
7,C82G A111C A120C A145G C169A U176A,0.0223
8,C82G A111C A120C A145G C169A U176C,0.0254
9,C82G A111C A120C A145G C169A U176G,0.00796
10,C82A A145U C150G U176A,0.0365
11,C82A A145U C150G U176G,0.0081
12,C82A A145U C150G U176C,0.0521
13,C82A A145G C150G C169U U176G,0.00762
14,C82A A145G C150G C169U U176A,0.0117
15,C82A A145G C150G C169U U176C,0.0136
16,C82G A111C A120C A145C C150G U176C,0.00825
17,C82G A111C A120C A145C C150G U176A,0.00528
18,C82G A111C A120C A145C C150G U176G,0.00325
19,C82A C150A C169G U176C,0.0241
20,C82A C150A C169G U176G,0.0072
21,C82A C150A C169G U176A,0.0198

row,Variant,reverse-splicing fitness
1,C82A C150U C169U U176G,0.00577
2,C82A C150U C169U U176A,0.0141
3,C82A C150U C169U U176C,0.016
4,C82A A145G C150G C169G U176A,0.0112
5,C82A A145G C150G C169G U176C,0.0134
6,C82A A145G C150G C169G U176G,0.00659
7,C82A A145U C150U C169G,0.00961
8,C82A A145U C150U C169A,0.00956
9,C82A A145U C150U C169U,0.0127
10,C82G A111C A120C A145C C150G C169A U176A,0.00832
11,C82G A111C A120C A145C C150G C169A U176G,0.00733
12,C82G A111C A120C A145C C150G C169A U176C,0.00796
13,C82A A145G C150U C169G U176G,0.00547
14,C82A A145G C150U C169G U176C,0.02
15,C82A A145G C150U C169G U176A,0.0138
16,C82G A111C A120C A145G C150U C169G,0.00759
17,C82G A111C A120C A145G C150U C169U,0.0124
18,C82G A111C A120C A145G C150U C169A,0.0101
19,C82G A111C A120C A145C C150U U176C,0.0129
20,C82G A111C A120C A145C C150U U176G,0.00681
21,C82G A111C A120C A145C C150U U176A,0.0114

row,Variant,reverse-splicing fitness
1,C82G A111C A120C A145U C150G C169A U176G,0.00726
2,C82G A111C A120C A145U C150G C169A U176C,0.0108
3,C82G A111C A120C A145U C150G C169A U176A,0.0121
4,C82A C150A C169A U176G,0.007
5,C82A C150A C169A U176A,0.0211
6,C82A C150A C169A U176C,0.0177
7,C82G A111C A120C A145U C150A U176C,0.0153
8,C82G A111C A120C A145U C150A U176G,0.00601
9,C82G A111C A120C A145U C150A U176A,0.0102
10,C82G A111C A120C A145C C169U U176G,0.00508
11,C82G A111C A120C A145C C169U U176C,0.0151
12,C82G A111C A120C A145C C169U U176A,0.0165
13,C82A A145U C150U C169G U176C,0.013
14,C82A A145U C150U C169G U176G,0.00539
15,C82A A145U C150U C169G U176A,0.0124
16,C82G A111C A120C A145G C150A C169G U176G,0.00768
17,C82G A111C A120C A145G C150A C169G U176A,0.0156
18,C82G A111C A120C A145G C150A C169G U176C,0.0228
19,C82G A111C A120C A145G C150A C169U U176A,0.0157
20,C82G A111C A120C A145G C150A C169U U176C,0.0139
